Earlier results, collected in patent US20080213253A1, “COMBINATION THERAPY FOR THE TREATMENT OF CANCER” (DYAX CORP., priority 2007, published 2008).

Assays:
[1] = target: Tie complex (Tie1 and Tie2) (Homo sapiens, UniProt P35590); details: statement in words, no data shown
[2] = target: Tie1 (Homo sapiens, UniProt P35590); details: statement in words, no data shown
Chain of Tie1 (P35590 22-1138): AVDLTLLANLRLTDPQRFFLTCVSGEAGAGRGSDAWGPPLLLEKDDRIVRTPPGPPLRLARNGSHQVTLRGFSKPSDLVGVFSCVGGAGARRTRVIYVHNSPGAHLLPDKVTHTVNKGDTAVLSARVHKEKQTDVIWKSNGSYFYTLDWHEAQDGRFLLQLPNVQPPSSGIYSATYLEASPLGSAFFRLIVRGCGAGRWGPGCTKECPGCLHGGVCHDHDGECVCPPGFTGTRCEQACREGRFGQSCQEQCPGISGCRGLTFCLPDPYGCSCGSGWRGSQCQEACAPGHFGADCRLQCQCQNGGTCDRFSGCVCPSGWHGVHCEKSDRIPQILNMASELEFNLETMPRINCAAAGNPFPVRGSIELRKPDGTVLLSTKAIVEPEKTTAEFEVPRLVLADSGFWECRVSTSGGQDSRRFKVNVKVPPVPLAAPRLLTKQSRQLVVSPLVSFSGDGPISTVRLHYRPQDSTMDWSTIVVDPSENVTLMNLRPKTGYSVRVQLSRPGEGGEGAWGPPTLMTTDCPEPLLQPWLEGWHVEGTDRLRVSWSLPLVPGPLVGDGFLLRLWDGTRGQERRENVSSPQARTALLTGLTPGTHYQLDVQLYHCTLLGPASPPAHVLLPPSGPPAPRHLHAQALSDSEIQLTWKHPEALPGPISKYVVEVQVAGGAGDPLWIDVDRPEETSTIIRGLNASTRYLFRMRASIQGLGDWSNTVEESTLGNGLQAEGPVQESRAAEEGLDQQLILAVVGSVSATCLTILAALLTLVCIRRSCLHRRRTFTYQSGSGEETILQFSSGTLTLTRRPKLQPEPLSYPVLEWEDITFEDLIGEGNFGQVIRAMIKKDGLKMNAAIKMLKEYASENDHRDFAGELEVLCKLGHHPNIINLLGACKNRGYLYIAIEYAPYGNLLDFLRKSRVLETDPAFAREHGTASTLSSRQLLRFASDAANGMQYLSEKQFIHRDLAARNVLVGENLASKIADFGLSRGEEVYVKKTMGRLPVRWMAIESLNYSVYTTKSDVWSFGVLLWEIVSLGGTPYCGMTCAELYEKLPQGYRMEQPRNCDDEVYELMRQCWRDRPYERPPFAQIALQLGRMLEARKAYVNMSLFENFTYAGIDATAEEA

Chain of Tie complex (Tie1 and Tie2) (P35590 22-1138, one chain of several): as the sequence (P35590 22-1138) above

- Tie complex formation [1]: induce Tie complex formation
B1: M0044-B08: Tie1 ectodomain-binding antibody; variable domains SEQ ID NO:1 and 3 (antibody, V domains shown)
VL: QDIQMTQSPSFLSASVGDRVTISCRASQYISIYLNWYQQRPGEAPKLLINAASSLQSGDPSRFSGSGSGTDFTLTINSLQPDDFATYYCQQYKSYPLTFGEGTKVEIK
VH: EVQLLESGGGLVQPGGSLRLSCAASGFTFSAYGMGWVRQAPGKGLEWVSVISPSGGQTSYADSVKGRFTISRDNSKNTLYLQMNSLRAEDTALYYCAGGDRYGPLHYWGQGTLVTVSS
- down modulation of Tie1 from the cell surface [2]: down modulation of Tie1 from the cell surface
